According to PMC6351565 (2019):
Where no end group is shown, it is not given here. [ ]: non-standard residue; d: D form. pT = C[C@@H](OP(=O)(O)O)[C@H](N)C(=O)O; pS = N[C@@H](COP(=O)(O)O)C(=O)O

Target: T1, 14-3-3θ (human, UniProt P27348 1-245)
T1 chain: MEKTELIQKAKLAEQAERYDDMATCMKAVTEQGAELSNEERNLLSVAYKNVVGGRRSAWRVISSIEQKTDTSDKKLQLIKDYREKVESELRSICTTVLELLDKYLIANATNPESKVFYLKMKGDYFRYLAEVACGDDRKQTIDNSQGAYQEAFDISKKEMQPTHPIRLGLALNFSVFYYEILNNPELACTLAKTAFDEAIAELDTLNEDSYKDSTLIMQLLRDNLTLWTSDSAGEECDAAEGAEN
Assay: ITC

Binder	Kd [µM]
Ac-LSDSYSN[pT]LPVRKS-NH2 (SMILES CC(=O)N[C@@H](CC(C)C)C(=O)N[C@@H](CO)C(=O)N[C@@H](CC(=O)O)C(=O)N[C@@H](CO)C(=O)N[C@@H](Cc1ccc(O)cc1)C(=O)N[C@@H](CO)C(=O)N[C@@H](CC(N)=O)C(=O)N[C@H](C(=O)N[C@@H](CC(C)C)C(=O)N1CCC[C@H]1C(=O)N[C@H](C(=O)N[C@@H](CCCNC(=N)N)C(=O)N[C@@H](CCCCN)C(=O)N[C@@H](CO)C(N)=O)C(C)C)[C@@H](C)OP(=O)(O)O) [Site 2 peptide (pT340)]	5.5
AQPKSL[pS]PPQSQSKLSDSYSN[pT]LPVRKS [Sites 1,2 peptide (pS325/pT340)]	16.2
Ac-TLPRSS[pS]MAAGLEK-NH2 (SMILES CSCC[C@H](NC(=O)[C@H](COP(=O)(O)O)NC(=O)[C@H](CO)NC(=O)[C@H](CO)NC(=O)[C@H](CCCNC(=N)N)NC(=O)[C@@H]1CCCN1C(=O)[C@H](CC(C)C)NC(=O)[C@@H](NC(C)=O)[C@@H](C)O)C(=O)N[C@@H](C)C(=O)N[C@@H](C)C(=O)NCC(=O)N[C@@H](CC(C)C)C(=O)N[C@@H](CCC(=O)O)C(=O)N[C@@H](CCCCN)C(N)=O) [Site 4 peptide (pS366)]	16.5
Ac-ATTENK[pT]LPRSSS-NH2 (SMILES CC(=O)N[C@@H](C)C(=O)N[C@H](C(=O)N[C@H](C(=O)N[C@@H](CCC(=O)O)C(=O)N[C@@H](CC(N)=O)C(=O)N[C@@H](CCCCN)C(=O)N[C@H](C(=O)N[C@@H](CC(C)C)C(=O)N1CCC[C@H]1C(=O)N[C@@H](CCCNC(=N)N)C(=O)N[C@@H](CO)C(=O)N[C@@H](CO)C(=O)N[C@@H](CO)C(N)=O)[C@@H](C)OP(=O)(O)O)[C@@H](C)O)[C@@H](C)O) [Site 3 peptide (pT360)]	15.5
